Among the data in the RNAGym collection of RNA variant scans (doi:10.1093/molbev/msab373) are reverse-splicing fitness values, retold here.

First the molecules themselves.
B1: Azoarcus group I ribozyme (parent)
chain: GUGCCUUGCGCCGGGAAACCACGCAAGGGAUGGUGUCAAAUUCGGCGAAACCUAAGCGCCCGCCCGGGCGUAUGGCAACGCCGAGCCAAGCUUCGGCGCCUGCGCCGAUGAAGGUGUAGAGACUAGACGGCACCCACCUAAGGCAAACGCUAUGGUGAAGGCAUAGUCCAGGGAGUGGCGAAAGUCACACAAACCGG

This data set covers variants of B1. The data set can be described thus: reverse-splicing fitness (ratio to wild type); higher = more active; in vitro selection; Mg2+ level not given. In short, it runs like this: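 An in vitro group I ribozyme library with randomized positions was T7-transcribed and gel-purified. In triplicate, 10 pmol RNA in EPPS pH 7.5 was reacted with 50 pmoles of a 30-nt RNA substrate for 1 h at 37 °C across several added MgCl2 levels (1–48 mM), then stopped with EDTA. Products were reverse transcribed from a substrate-complementary primer, PCR-amplified and sequenced (HiSeq 4000). Fitness is a variant's read proportion after selection over that before, normalised to wild type.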
On to GUGCCUUGCGCCGGGAAACCACGCAAGGGAUGGUGUCAAAUUCGGCGAAACCUAAGCGCCCGCCCGGGCGUAUGGCAACGCAGAGCCAAGCUUCGGCGCCUGCGCCGAUGUAGGUGUAGGGACUAGACGGCACCCACCUAAGGCCAACGCUAUGGUGAAGGCAUAGUCAAGGGAGCGGCGAAAGUCACACAAACCGG, for which the reverse-splicing fitness is 0.00818. As for GUGCCUUGCGCCGGGAAACCACGCAAGGGAUGGUGUCAAAUUCGGCGAAACCUAAGCGCCCGCCCGGGCGUAUGGCAACGCAGAGCCAAGCUUCGGCGCCUGCGCCGAUGUAGGUGUAGGGACUAGACGGCACCCACCUAAGGCCAACGCUAUGGUGAAGGCAUAGUCAAGGGAGGGGCGAAAGUCACACAAACCGG, the reverse-splicing fitness was 0.0048. For the variant GUGCCUUGCGCCGGGAAACCACGCAAGGGAUGGUGUCAAAUUCGGCGAAACCUAAGCGCCCGCCCGGGCGUAUGGCAACGCAGAGCCAAGCUUCGGCGCCUGCGCCGAUGUAGGUGUAGGGACUAGACGGCACCCACCUAAGGCCAACGCUAUGGUGAAGGCAUAGUCAAGGGAGAGGCGAAAGUCACACAAACCGG, the reverse-splicing fitness amounted to 0.0141.

Consider GUGCCUUGCGCCGGGAAACCACGCAAGGGAUGGUGUCAAAUUCGGCGAAACCUAAGCGCCCGCCCGGGCGUAUGGCAACGCAGAGCCAAGCUUCGGCGCCUGCGCCGAUGUAGGUGUAGGGACUAGACGGCACCCACCUAAGGCCAACGCUAUGGUGAAGGCAUAGUCGAGGGAGUGGCGAAAGUCACACAAACCGG, for which the reverse-splicing fitness is 0.0105.

With GUGCCUUGCGCCGGGAAACCACGCAAGGGAUGGUGUCAAAUUCGGCGAAACCUAAGCGCCCGCCCGGGCGUAUGGCAACGCAGAGCCAAGCUUCGGCGCCUGCGCCGAUGUAGGUGUAGGGACUAGACGGCACCCACCUAAGGCCAACGCUAUGGUGAAGGCAUAGUCAAGGGAGUGGCGAAAGUCACACAAACCGG, the reverse-splicing fitness was 0.0074.

As for GUGCCUUGCGCCGGGAAACCACGCAAGGGAUGGUGUCAAAUUCGGCGAAACCUAAGCGCCCGCCCGGGCGUAUGGCAACGCAGAGCCAAGCUUCGGCGCCUGCGCCGAUGUAGGUGUAGGGACUAGACGGCACCCACCUAAGGCCAACGUUAUGGUGAAGGCAUAGUCAAGGGAGAGGCGAAAGUCACACAAACCGG, the reverse-splicing fitness was found to be 0.0127.

Turning to GUGCCUUGCGCCGGGAAACCACGCAAGGGAUGGUGUCAAAUUCGGCGAAACCUAAGCGCCCGCCCGGGCGUAUGGCAACGCAGAGCCAAGCUUCGGCGCCUGCGCCGAUGUAGGUGUAGGGACUAGACGGCACCCACCUAAGGCCAACGUUAUGGUGAAGGCAUAGUCAAGGGAGCGGCGAAAGUCACACAAACCGG, the reverse-splicing fitness came to 0.00677. On to GUGCCUUGCGCCGGGAAACCACGCAAGGGAUGGUGUCAAAUUCGGCGAAACCUAAGCGCCCGCCCGGGCGUAUGGCAACGCAGAGCCAAGCUUCGGCGCCUGCGCCGAUGUAGGUGUAGGGACUAGACGGCACCCACCUAAGGCCAACGUUAUGGUGAAGGCAUAGUCAAGGGAGGGGCGAAAGUCACACAAACCGG, for which the reverse-splicing fitness was found to be 0.00508.

For GUGCCUUGCGCCGGGAAACCACGCAAGGGAUGGUGUCAAAUUCGGCGAAACCUAAGCGCCCGCCCGGGCGUAUGGCAACGCAGAGCCAAGCUUCGGCGCCUGCGCCGAUGUAGGUGUAGGGACUAGACGGCACCCACCUAAGGCCAACGUUAUGGUGAAGGCAUAGUCUAGGGAGUGGCGAAAGUCACACAAACCGG, the reverse-splicing fitness came out at 0.00725. Take GUGCCUUGCGCCGGGAAACCACGCAAGGGAUGGUGUCAAAUUCGGCGAAACCUAAGCGCCCGCCCGGGCGUAUGGCAACGCAGAGCCAAGCUUCGGCGCCUGCGCCGAUGUAGGUGUAGGGACUAGACGGCACCCACCUAAGGCCAACGUUAUGGUGAAGGCAUAGUCGAGGGAGUGGCGAAAGUCACACAAACCGG: the reverse-splicing fitness stood at 0.00823. Take GUGCCUUGCGCCGGGAAACCACGCAAGGGAUGGUGUCAAAUUCGGCGAAACCUAAGCGCCCGCCCGGGCGUAUGGCAACGCAGAGCCAAGCUUCGGCGCCUGCGCCGAUGUAGGUGUAGGGACUAGACGGCACCCACCUAAGGCCAACGUUAUGGUGAAGGCAUAGUCAAGGGAGUGGCGAAAGUCACACAAACCGG: the reverse-splicing fitness came to 0.00869.

On to GUGCCUUGCGCCGGGAAACCACGCAAGGGAUGGUGUCAAAUUCGGCGAAACCUAAGCGCCCGCCCGGGCGUAUGGCAACGCAGAGCCAAGCUUCGGCGCCUGCGCCGAUGUAGGUGUAGGGACUAGACGGCACCCACCUAAGGCCAACGGUAUGGUGAAGGCAUAGUCUAGGGAGAGGCGAAAGUCACACAAACCGG, for which the reverse-splicing fitness stood at 0.0132. Turning to GUGCCUUGCGCCGGGAAACCACGCAAGGGAUGGUGUCAAAUUCGGCGAAACCUAAGCGCCCGCCCGGGCGUAUGGCAACGCAGAGCCAAGCUUCGGCGCCUGCGCCGAUGUAGGUGUAGGGACUAGACGGCACCCACCUAAGGCCAACGGUAUGGUGAAGGCAUAGUCUAGGGAGGGGCGAAAGUCACACAAACCGG, the reverse-splicing fitness worked out at 0.00584. For GUGCCUUGCGCCGGGAAACCACGCAAGGGAUGGUGUCAAAUUCGGCGAAACCUAAGCGCCCGCCCGGGCGUAUGGCAACGCAGAGCCAAGCUUCGGCGCCUGCGCCGAUGUAGGUGUAGGGACUAGACGGCACCCACCUAAGGCCAACGGUAUGGUGAAGGCAUAGUCUAGGGAGCGGCGAAAGUCACACAAACCGG, the reverse-splicing fitness came to 0.0117. In the case of GUGCCUUGCGCCGGGAAACCACGCAAGGGAUGGUGUCAAAUUCGGCGAAACCUAAGCGCCCGCCCGGGCGUAUGGCAACGCAGAGCCAAGCUUCGGCGCCUGCGCCGAUGUAGGUGUAGGGACUAGACGGCACCCACCUAAGGCCAACGCUAUGGUGAAGGCAUAGUCGAGGGAGCGGCGAAAGUCACACAAACCGG, the reverse-splicing fitness turned out to be 0.0184.
